Test results published in the DeepSol protein solubility set.

Experiment: soluble on expression in E. coli; label from the status in PepcDB or PDB records

| Sequence | soluble on expression in E. coli |
| --- | --- |
| MLQGKAFLITGAGGALSRALIPAFHQAGARLFLSDPRPERMAERAQAVGAKTFVADLTRLEEALALARFVEEEAPLYGVVHTVGGFAAGRFLDTDPGLYDWMLDLNLRTTFNLLKAVLPYMAKRGEGFFAAFAAGPAWTGAGPGRALYTAAKTALASLLRSLQGEVEGVRFLVVYPMGTLDTEANRKAMPEADFSRWIAPELVAKVVVEAAGAKGGRLLELPIYPPL | soluble |
| MAPSCLKMAHMRLLLTSFGHDHIRDFVRGTVAYIPDATRLFADSPEAAPFMETERNMLREHGLSIRELPISTSTPEEVDRVLGEVDGVYVAGGETFDLMWLLRSTGNDEVLIKHVRAGLPYIGTSAGAVIAGPSIEPISFLDSPDVAPNLSDYSGLGLCEHVVVPHAGGTIPQFPIDVFAETVRTYGAEFPLVLLKDGQALLIDDHGVHLILEHHHHHH | soluble |
| MSLNIHIHSMTGFANAAAECGSKRINLDIRAVNHRFLDIQIRMPDDLRYLESGIREKISSHIARGKVECKIQIQDTENSRQSLELNSDLVNQLAEINKNLRKHHDLAKLGVADILRFPGVLASQRENTEELAKSITELTEKALKDFTAARRREGKKLGEHLLQRLESMEEIIDALSELFPTLLETHKEKIRARLVEAVGDINNDRLQQEFALFIQKSDIDEEFSRLRTHIAEVRRIVTEHKGSSGKRLDFLMQELNREANTLGSKSIAAECTQASVELKVLIEQMREQVQNIEEGHHHHHH | soluble |
| MGSDKIHHHHHHMRRQLNGQMFVWLHVFACAARHLSFTRCAEELHITPGAVSQQMRQLEERLGYRLFLRRARGVELSAEGQRLAQTVAEAYGSIEAELLRLDAGEIRGTLRVRSIPSFLAKWLTPRLPRFQQRYPDIELRLVAEDSAQALTPGDFDLAIDLNDGSYPGMLSTPLLDEQIFPVCSPALLRGRPPLHGPADLAHYPLLHDITAWRGSSEYAEWEFYLEGIGAAGLDVRRGHTFNRNHLTIEAAIAGIGVAIARRTLLNDELERGALIVPFGVPIANHKRYVVHYPPGGLNQPGARAVHDWLVEEARGFRVLHPLNKE | not soluble |
| MSEVKKTKVHLISGFLGTGKTTALKSLMAQKDPNEKWVIIVNEFGEIGIDGAVLSDNGIPVAEIAGGCLCCTAGPQMGVTVQKMLRDAKPDRLMIEASGLAHAASVIDELKAKPLDSLLEIGAVFTVVDPRQFINPDYAQQALYKDQIGICDVLAASKTDLCTPEQLAEFHDKAAKLFPPKAKVVEVQNAQLDIQWLDIPVVEKSRYRLKALPDNTMGFQSQGFTFPAGRDFNGEKLTNFFNDLPKMTEGLVRAKGVFQVLGTWVWLNWVDGQWGANQVSWRRDSRFELIAKSFDADLIEQKLKDALELEHHHHHH | soluble |
| SREPVDILREQKINAEWALKQQSDKLAAQFDNMDDAYLRERKQDMLQVVRRIHNNLIGQGNELEVADNLFDETVLIANDLSPADTVLFKEQR | not soluble |
| MAHHHHHHSGMSGMRVYLGADHAGYELKQRIIEHLKQTGHEPIDCGALRYDADDDYPAFCIAAATRTVADPGSLGIVLGGSGNGEQIAANKVPGARCALAWSVQTAALAREHNNAQLIGIGGRMHTVAEALAIVDAFVTTPWSKAQRHQRRIDILAEYERTHEAPPVPGAPA | soluble |
| MGSDKIHHHHHHMIYKADNNVRQKLVEMFDDFDSTIVLSYLQGHMGSAWVDNLENPTVAQITVGIFVFYAGNPNAEEAEELLYNLPDFTLAIVDSDEWKKRIETVHKGSIEKFQRFRFNKNPGDLDKEYIRDILSTLPQNYEMKKIDKDIAKASSFHALSEDFTSQFDSIDDFIDRGVGYAILNKGQVVSAATSFSIFDDGIEIEIASHPEHRRKGLAKIVASALILDCLDREKYPSWDGANVESVELAKKLGYTFKEPYDTYFIQIKK | not soluble |
| MSSSQVVRDSAKKLVNLLEKYPKDRIHHLVSFRDVQIARFRRVAGLPNVDDKGKSIKEKKPSLDEIKSIINRTSGPLGLNKEMLTKIQNKMVDEKFTEESINEQIRALSTIMNNKFRNYYDIGDKLYKPAGNPQYYQRLINAVDGKKKESLFTAMRTVLFGK | not soluble |
| MGSDKIHHHHHHMKVAVIGAKGQLGTDLVDVLKEEFTVYPLTHEDVDVAVSESLEVLRDIHPDVIINTAAYVRVDDAENHAEKAFAVNAIGALNVARISSEIDAVNIYISTDYVFDGEKGEPYVETDKPNPINVYGASKYAGEILTKNYSEKHYVIRVASLYGKAGASGKGGNFVNWVVDMARKGQELRIVADQFMSPTYTKDVALAVREFLKLRPDYGIYHMVNDGYCSWFEFTKAIFEILDWDVEIQPIKSSELNRLARRPAFSALQNYKLERIGIKMRHWREALRDYLAEKGLV | not soluble |
| MNRICELLGIEHPIISGGMVWCSGWKLASAVSNCGGLGLIGAGSMHPDNLEHHIRSCKAATDKPFGVNVPLLYPEMDKIMEIIMREHVPVVVTSAGSPKVWTAKLKAAGSKVIHV | not soluble |
| MGSDKIHHHHHHMNFFEIVNAHLSELSPNEQKLFDYVVTNMGQIKNQSIREVASATFVSTATFLRFVKKIGFSGFSEFTTVIKFTLINRQEAERTTPFVVQQKDYREEYLKNIGESIRVIQPDHLRQVVDRLAQHPDVFFFAKGVSKHAVAYIDYLYTMAGFKTHFPRDHDYRKQALTQVDNDALVFILTYKGSDGEMLDMMSQLVGRPVRPLLVSITEPDNNTIQNLSDINFYIFTDGVTVNGTDISSRISTISVMELILYQYVEDYGGRDFHFQRQLES | not soluble |
| MEIFPAIDLKEGRCVRLYQGEFSKETVMNEDPVAQAIIFEKFGAKRLHIVDLDGAVAGESLNLSVIERICKAVRIPVQVGGGIRSLVAVEKLFSVGVDKVILGTAALYDKTFLEEAVLLYKEKIIVGIDAKNGFVATRGWLDVSEISYIDLAKQMEKIGVQTIVFTDISKDGTLAGPNIEQLELLQKSVAIRLIASGGVASIQDVKKLNDMNIYGVIIGKALYEKTIDLEEVVEVTKLC | not soluble |
| MTKKQKEILFCDYFEEWVEVYKVGAIAKITLAKYYNAAKQLRDLCPKLFISDFDRREYQRIINVYAETHEKQTVKDFHHHVKACIKDLFHDGLIDKDPTYRVVIKGAELEHHHHHH | soluble |
| MGSDKIHHHHHHMKIAQIAPLAERVPPKLYGGTERIVHCLTEELVRLGHDVTLFASGDSLTSAELVPCCDVALRLNPRVQDFLPHHIAMLEEVRRRAPQFDVLHFHIEFLHFPLIRDFADRTVTTLHTRLDLPDLQPFYLAFPDIPLVSISQHQRVPMPPVNWRGTVLHGLDPTVLPLREGRSDEYLAFLGRIAPEKGPDRAIEIAARSGMPLKIAAKIDAQDRAYWEAVVEPLIASHSNVEYIGEIDEGQKADFLGNAAALLFPINWPEPFGLVMIEAMACGTPVLAFRYGSAPEVIDDGVSGILVDTVEQAVESLGRVLELDRRKVRESFETRFTTERMTRDYLDIYQNLPGVLRQTASTPQGEAKKVGLEAA | not soluble |
| MRHLFASLAFMLATSTVAHAEKLTLEAITGPLPLSGPTLMKPKVAPDGSRVTFLRGKDSDRNQLDLWSYDIGSGQTRLLVDSKVVLPGTETLSDEEKARRERQRIAAMTGIVDYQWSPDAQRLLFPLGGELYLYDLKQEGKAAVRQLTHGEGFATDAKLSPKGGFVSFIRGRNLWVIDLASGRQMQLTADGSTTIGNGIAEFVADEEMDRHTGYWWAPDDSAIAYARIDESPVPVQKRYEVYADRTDVIEQRYPAAGDANVQVKLGVISPAEQAQTQWIDLGKEQDIYLARVNWRDPQHLSFQRQSRDQKKLDLVEVTLASNQQRVLAHETSPTWVPLHNSLRFLDDGSILWSSERTGFQHLYRIDSKGKAAALTHGNWSVDELLAVDEKAGLAYFRAGIESARESQIYAVPLQGGQPQRLSKAPGMHSASFARNASVYVDSWSNNSTPPQIELFRANGEKIATLVENDLADPKHPYARYREAQRPVEFGTLTAADGKTPLNYSVIKPAGFDPAKRYPVAVYVYGGPASQTVTDSWPGRGDHLFNQYLAQQGYVVFSLDNRGTPRRGRDFGGALYGKQGTVEVADQLRGVAWLKQQPWVDPARIGVQGWSNGGYMTLMLLAKASDSYACGVAGAPVTDWGLYDSHYTERYMDLPARNDAGYREARVLTHIEGLRSPLLLIHGMADDNVLFTNSTSLMSALQKRGQPFELMTYPGAKHGLSGADALHRYRVAEAFLGRCLKP | soluble |
| MEQTLRVSVFGATGYTGIELLRSLLTHPHFEVKNLISQSYKGKKVREVLPFFSNTYISEIEFLEEPVEDYELAFLCLPHEVSYEIVPKLLSQGKKVVDLSGAYRIKSPKAYEEFYGFKHEREDILQRAVYGLPEVFREEIKNSDLVANPGCYPTATLLAIYPFLKERVGIESVIVHALSGVSGAGRKPKQQFHFPEMTENFFNYAVEKHRHTPEMEDVIRRVYGREVKVRFTPTVVPTSRGMISTVYLKSEKLNVKELFKEVYEDEIFVKVVDEPPQTKWVLGTNYCFIYPHYDERTGYYVIISAIDNLGKGASLQAVQNANLMFGLAEDDGLLQLPVFP | soluble |
| MGSDKIHHHHHHMMNIPPFINTIIGQQPYPLLFAIISGSHLYGFPSPDSDYDLRGVHILPVEEVVGLETGNETIEVSEIREALEIDLVTHDVKKFFLMLLKKNGYVLEQLYSPLVLTTSPEAEELKFIAKGCITRNHYYHYIGFAATQWKLFENERTYRLKPLLYVYRVLLTGIYLMQTGIVEANLMKLNEVFNLPYIHDLITQKIAGKEKSVVSNVNVDFHQIEYERLRHKLQEVYESSRLPEVPSANAALHNLLVRLRTNVKLRK | not soluble |
| MGSDKIHHHHHHMHIDIDWQNVDTVLLDMDGTLLDLAFDNYFWQKLVPETYGAQQGISPQDAQEYIRQQYHAVQHTLNWYCLDYWSERLGLDICAMTTAQGPRAVLRDDTVPFLNALKASGKRRILLTNAHPHNLAVKLEHTGLASHLDLLLSTHTFGYPKEDQRLWRAVTEETGISAEKTLFIDDSEPILDAAARFGIRYCLGVTNPDSGLAEKHYTRHPSLNDYRRLIPSLM | not soluble |
| MSKGASAPQQQSAFKQLYTELFNNEGDFSKVSSNLKKPLKCYVKESYPHFLVTDGYFFVAPYFTKEAVNEFHAKFPNVNIVDLTDKVIVINNWSLELRRVNSAEVFTSYANLEARLIVHSFKPNLQERLNPTRYPVNLFRDDEFKTTIQHFRHTALQAAINKTVKGDNLVDISKVADAAGKKGKVDAGIVKASASKGDEFSDFSFKEGNTATLKIADIFVQEKGKDALNKAADHTDGAKVKGGAKGKGKAAAKAAKGKKLSAKKGDSSAADVRKSVDKIVKYTPSKGSRKDTPQKSQAPAAGKSSAKKGGKKAVPSAPSPSGKKSALTTDKMTMAQFVKYLDWHEKKKGGKVSSGGKVLGKRSAGKASATSGKASKASKKTAAKK | soluble |
| MSRAKAAPVAGPEVAANRAGRQARIVAILSSAQVRSQNELAALLAAEGIEVTQATLSRDLEELGAVKLRGADGGTGIYVVPEDGSPVRGVSGGTDRMARLLGELLVSTDDSGNLAVLRTPPGAAHYLASAIDRAALPQVVGTIAGDDTILVVAREPTTGAQLAGMFENLR | soluble |
